Results as given in US20230151111A1 (AKESO BIOPHARMA, published 2023).

How the values were obtained:
[1] = target: T1, CD73 on cell membrane surface (MDA-MB-231, U87-MG) (human, UniProt P21589 27-549); assay: flow cytometry, MDA-MB-231 cells; antibody 0.14 nM
T1 construct: whole, on cells; also called NT5E
T1 sequence (looked up): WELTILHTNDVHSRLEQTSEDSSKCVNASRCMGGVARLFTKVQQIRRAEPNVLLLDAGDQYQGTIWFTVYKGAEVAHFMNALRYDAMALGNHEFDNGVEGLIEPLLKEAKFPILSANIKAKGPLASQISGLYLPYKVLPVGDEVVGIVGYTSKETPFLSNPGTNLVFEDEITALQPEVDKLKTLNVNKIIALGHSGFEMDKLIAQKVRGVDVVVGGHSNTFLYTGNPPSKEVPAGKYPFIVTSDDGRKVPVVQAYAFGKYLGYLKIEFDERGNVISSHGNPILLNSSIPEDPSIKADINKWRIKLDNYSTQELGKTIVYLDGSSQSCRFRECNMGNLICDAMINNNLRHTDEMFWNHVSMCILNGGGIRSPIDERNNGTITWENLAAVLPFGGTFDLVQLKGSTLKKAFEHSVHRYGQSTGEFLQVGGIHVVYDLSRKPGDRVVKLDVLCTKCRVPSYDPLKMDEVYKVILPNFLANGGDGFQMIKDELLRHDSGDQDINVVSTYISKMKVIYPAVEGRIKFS
Procedure: (§1) MDA-MB-231 cells in logarithmic phase were digested with conventional trypsin and transferred to a 1.5 mL centrifuge tube at 3×10⁵ cells/tube. 500 μL of PBSA was added, and the mixture was centrifuged at 5600 rpm for 5 min to remove the supernatant. […] The system was mixed gently and uniformly, and then was incubated on ice for 1 h. Then 500 μL of PBSA was added, and the mixture was centrifuged at 5600 rpm for 5 min to remove the supernatant. […] 500 μL of PBSA was added, and the mixture was centrifuged at 5600 rpm for 5 min to remove the supernatant. At last, 200 μL of PBSA was added to resuspend cell precipitates, and the mixture was transferred to a flow tube for FACSCalibur detection.

[2] = target: T1, CD73 on cell membrane surface …; assay: flow cytometry, MDA-MB-231 cells; antibody 0.05 nM
Procedure: as §1

[3] = target: T2, PD-1 on 293T-PD1 cell surface (human, UniProt Q15116 25-288); assay: flow cytometry, 293T-PD1 cells; antibody 100.00 nM
T2 construct: whole, on cells
Procedure: as §1, with “500” for “MDA-MB-231 cells in logarithmic phase were digested with conventional trypsin and transferred to a 1.5 mL centrifuge tube at 3×10⁵ cells/tube. 500”

[4] = target: T2, PD-1 on 293T-PD1 cell surface; assay: flow cytometry, 293T-PD1 cells; antibody 33.33 nM
Procedure: as §1, with “500” for “MDA-MB-231 cells in logarithmic phase were digested with conventional trypsin and transferred to a 1.5 mL centrifuge tube at 3×10⁵ cells/tube. 500”

[5] = target: T1, CD73 on cell membrane surface …; assay: flow cytometry, MDA-MB-231 cells; antibody 11.11 nM
Procedure: as §1

[6] = target: T2, PD-1 on 293T-PD1 cell surface; assay: flow cytometry, 293T-PD1 cells; antibody 11.11 nM
Procedure: as §1, with “500” for “MDA-MB-231 cells in logarithmic phase were digested with conventional trypsin and transferred to a 1.5 mL centrifuge tube at 3×10⁵ cells/tube. 500”

[7] = target: T1, CD73 on cell membrane surface …; assay: flow cytometry, MDA-MB-231 cells; antibody 1.23 nM
Procedure: as §1

[8] = target: T3, PD-1-mFc (human, UniProt Q15116 25-170, limits assumed); assay: ELISA, PD-1-mFc coated
T3 construct: also called human PD-1-mFc
Procedure: A microplate was coated with PD-1-mFc at 0.5 μg/mL and incubated at 4° C. overnight. Then the microplate coated with antigens was washed once with PBST, and then blocked with a PBS solution containing 1% BSA as blocking solution at 37° C. for 2 h. After blocking, the microplate was washed 3 times with PBST. The microplate containing the test antibodies was incubated at 37° C. for 30 min, and then washed 3 times with PBST. […] After incubation, the plate was washed 4 times with PBST, TMB (Neogen, 308177) was added in the dark for chromogenesis for 5 min, and then a stop solution was added to terminate chromogenic reaction. The microplate was put into a microplate reader immediately, and the OD value of each well in the microplate was read at 450 nm. The data were analyzed and processed by SoftMax Pro 6.2.1,

[9] = target: T1, CD73 on cell membrane surface …; assay: flow cytometry, MDA-MB-231 cells; antibody 100.00 nM
Procedure: as §1

[10] = target: human PD-1-mFc-biotin (human, UniProt Q15116 25-170, limits assumed, biotin label, site not stated); assay: competitive ELISA, blocking of PD-1-mFc-biotin binding to coated PD-L1-mFc
Procedure: After incubation, the microplate was blocked with a PBS solution containing 1% BSA at 37° C. for 2 h. After blocking, the plate was washed three times and dried. The antibody was serially diluted to 7 concentrations in a gradient ratio of 1:3 on a dilution plate with 10 μg/mL as the starting concentration, and a blank control was set. […] Then the mixture after reaction was added to the coated microplate, and the microplate was incubated for at 37° C. for 30 min. After incubation, the plate was washed three times with PBST and dried. SA-HRP (KPL, 14-30-00) working solution was added, and the plate was incubated at 37° C. for 30 min. After incubation, the plate was washed four times and patted dry. Then TMB (Neogen, 308177) was added in the dark for chromogenesis for 5 min, and a stop solution was added to terminate chromogenic reaction. Then the microplate was put into a microplate reader immediately, and the OD value of each well in the microplate was read at 450 nm. The data were analyzed and processed by SoftMax Pro 6.2.1.

[11] = target: T1, CD73 on cell membrane surface …; assay: flow cytometry, MDA-MB-231 cells; antibody 0.41 nM
Procedure: as §1

[12] = target: T1, CD73 on cell membrane surface …; assay: flow cytometry, MDA-MB-231 cells; antibody 3.70 nM
Procedure: as §1

T2 sequence (Q15116 25-288): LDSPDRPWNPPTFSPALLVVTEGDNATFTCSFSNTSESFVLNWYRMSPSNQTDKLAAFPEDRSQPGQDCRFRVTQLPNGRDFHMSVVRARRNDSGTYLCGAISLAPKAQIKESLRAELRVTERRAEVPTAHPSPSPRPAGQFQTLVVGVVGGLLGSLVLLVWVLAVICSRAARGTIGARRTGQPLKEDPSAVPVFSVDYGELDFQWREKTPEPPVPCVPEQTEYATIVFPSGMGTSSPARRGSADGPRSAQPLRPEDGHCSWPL
human PD-1-mFc-biotin, sequence (Q15116 other isoform, or with tags, fused parts or gaps limits assumed): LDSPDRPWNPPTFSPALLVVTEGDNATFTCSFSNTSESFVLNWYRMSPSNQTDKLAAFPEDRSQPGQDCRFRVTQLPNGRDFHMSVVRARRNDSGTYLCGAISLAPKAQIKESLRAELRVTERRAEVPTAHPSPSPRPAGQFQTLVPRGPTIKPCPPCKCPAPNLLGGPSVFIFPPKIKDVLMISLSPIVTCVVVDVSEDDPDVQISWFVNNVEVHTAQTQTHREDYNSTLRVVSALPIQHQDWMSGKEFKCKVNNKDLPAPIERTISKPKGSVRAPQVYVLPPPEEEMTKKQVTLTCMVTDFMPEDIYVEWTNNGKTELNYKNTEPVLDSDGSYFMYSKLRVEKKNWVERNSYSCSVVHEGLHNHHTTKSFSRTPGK
T3 sequence (Q15116 other isoform, or with tags, fused parts or gaps limits assumed): as above

Row | Binder | FACS signal [1] | FACS signal [2] | FACS signal [3] | FACS signal [4] | FACS signal [5] | FACS signal [6] | FACS signal [7] | EC50 [8] | FACS signal [9] | EC50 [10] | FACS signal [11] | FACS signal [12]
1 | P1D7V01 (bispecific antibody, human IgG1, kappa, Morrison form IgG-scFv) heavy: not shown light: DIQMTQSPSSMSASVGDRVTFTCRASQDINTYLSWFQQKPGKSPKTLIYRANRLVSGVPSRFSGSGSGQDYTLTISSLQPEDMATYYCLQYDEFPLTFGAGTKLELKRTVAAPSVFIFPPSDEQLKSGTASVVCLLNNFYPREAKVQWKVDNALQSGNSQESVTEQDSKDSTYSLSSTLTLSKADYEKHKVYACEVTHQGLSSPVTKSFNRGEC | 38 | 23.4 | 531 | 479 | 561 | 578 | 272 | 0.078 nM | 706 | 1.11 nM | 76.8 | 572
2 | P1D7V03 (bispecific antibody, human IgG1, kappa, Morrison form IgG-scFv) heavy: not shown light: DIQMTQSPSSMSASVGDRVTFTCRASQDINTYLSWFQQKPGKSPKTLIYRANRLVSGVPSRFSGSGSGQDYTLTISSLQPEDMATYYCLQYDEFPLTFGAGTKLELKRTVAAPSVFIFPPSDEQLKSGTASVVCLLNNFYPREAKVQWKVDNALQSGNSQESVTEQDSKDSTYSLSSTLTLSKADYEKHKVYACEVTHQGLSSPVTKSFNRGEC | 44 | 17 | 343 | 808 | 525 | 459 | 233 | 0.075 nM | 678 | 1.15 nM | 106 | 458
